# B1: sp¦O14745¦NHRF1_HUMAN (protein, UniProt O14745 2-358, looked up)
# Na(+)/H(+) exchange …: SADAAAGAPLPRLCCLEKGPNGYGFHLHGEKGKLGQYIRLVEPGSPAEKAGLLAGDRLVEVNGENVEKETHQQVVSRIRAALNAVRLLVVDPETDEQLQKLGVQVREELLRAQEAPGQAEPPAAAEVQGAGNENEPREADKSHPEQRELRPRLCTMKKGPSGYGFNLHSDKSKPGQFIRSVDPDSPAEASGLRAQDRIVEVNGVCMEGKQHGDVVSAIRAGGDETKLLVVDRETDEFFKKCRVIPSQEHLNGPLPVPFTNGEIQKENSREALAEAALESPRPALVRSASSDTSEELNSQDSPPKQDSTAPSSTSSSDPILDFNISLAMAKERAHQKRSSKRAPQMDWSKKNELFSNL
# B2: sp¦Q9Y3F4¦STRAP_HUMAN (protein, UniProt Q9Y3F4 1-350, looked up)
# Serine-threonine kinase …: MAMRQTPLTCSGHTRPVVDLAFSGITPYGYFLISACKDGKPMLRQGDTGDWIGTFLGHKGAVWGATLNKDATKAATAAADFTAKVWDAVSGDELMTLAHKHIVKTVDFTQDSNYLLTGGQDKLLRIYDLNKPEAEPKEISGHTSGIKKALWCSEDKQILSADDKTVRLWDHATMTEVKSLNFNMSVSSMEYIPEGEILVITYGRSIAFHSAVSLDPIKSFEAPATINSASLHPEKEFLVAGGEDFKLYKYDYNSGEELESYKGHFGPIHCVRFSPDGELYASGSEDGTLRLWQTVVGKTYGLWKCVLPEEDSGELAKPKIGFPETTEEELEEIASENSDCIFPSAPDVKA
# B3: sp¦P41218¦MNDA_HUMAN (protein, UniProt P41218 1-407, looked up)
# Myeloid cell nuclear …: MVNEYKKILLLKGFELMDDYHFTSIKSLLAYDLGLTTKMQEEYNRIKITDLMEKKFQGVACLDKLIELAKDMPSLKNLVNNLRKEKSKVAKKIKTQEKAPVKKINQEEVGLAAPAPTARNKLTSEARGRIPVAQKRKTPNKEKTEAKRNKVSQEQSKPPGPSGASTSAAVDHPPLPQTSSSTPSNTSFTPNQETQAQRQVDARRNVPQNDPVTVVVLKATAPFKYESPENGKSTMFHATVASKTQYFHVKVFDINLKEKFVRKKVITISDYSECKGVMEIKEASSVSDFNQNFEVPNRIIEIANKTPKISQLYKQASGTMVYGLFMLQKKSVHKKNTIYEIQDNTGSMDVVGSGKWHNIKCEKGDKLRLFCLQLRTVDRKLKLVCGSHSFIKVIKAKKNKEGPMNVN
# B4: sp¦Q99614¦TTC1_HUMAN (protein, UniProt Q99614 1-292, looked up)
# Tetratricopeptide repeat …: MGEKSENCGVPEDLLNGLKVTDTQEAECAGPPVPDPKNQHSQSKLLRDDEAHLQEDQGEEECFHDCSASFEEEPGADKVENKSNEDVNSSELDEEYLIELEKNMSDEEKQKRREESTRLKEEGNEQFKKGDYIEAESSYSRALEMCPSCFQKERSILFSNRAAARMKQDKKEMAINDCSKAIQLNPSYIRAILRRAELYEKTDKLDEALEDYKSILEKDPSIHQAREACMRLPKQIEERNERLKEEMLGKLKDLGNLVLRPFGLSTENFQIKQDSSTGSYSINFVQNPNNNR
# B5: sp¦P12814¦ACTN1_HUMAN (protein, UniProt P12814 1-892, looked up)
# Alpha-actinin-1: MDHYDSQQTNDYMQPEEDWDRDLLLDPAWEKQQRKTFTAWCNSHLRKAGTQIENIEEDFRDGLKLMLLLEVISGERLAKPERGKMRVHKISNVNKALDFIASKGVKLVSIGAEEIVDGNVKMTLGMIWTIILRFAIQDISVEETSAKEGLLLWCQRKTAPYKNVNIQNFHISWKDGLGFCALIHRHRPELIDYGKLRKDDPLTNLNTAFDVAEKYLDIPKMLDAEDIVGTARPDEKAIMTYVSSFYHAFSGAQKAETAANRICKVLAVNQENEQLMEDYEKLASDLLEWIRRTIPWLENRVPENTMHAMQQKLEDFRDYRRLHKPPKVQEKCQLEINFNTLQTKLRLSNRPAFMPSEGRMVSDINNAWGCLEQVEKGYEEWLLNEIRRLERLDHLAEKFRQKASIHEAWTDGKEAMLRQKDYETATLSEIKALLKKHEAFESDLAAHQDRVEQIAAIAQELNELDYYDSPSVNARCQKICDQWDNLGALTQKRREALERTEKLLETIDQLYLEYAKRAAPFNNWMEGAMEDLQDTFIVHTIEEIQGLTTAHEQFKATLPDADKERLAILGIHNEVSKIVQTYHVNMAGTNPYTTITPQEINGKWDHVRQLVPRRDQALTEEHARQQHNERLRKQFGAQANVIGPWIQTKMEEIGRISIEMHGTLEDQLSHLRQYEKSIVNYKPKIDQLEGDHQLIQEALIFDNKHTNYTMEHIRVGWEQLLTTIARTINEVENQILTRDAKGISQEQMNEFRASFNHFDRDHSGTLGPEEFKACLISLGYDIGNDPQGEAEFARIMSIVDPNRLGVVTFQAFIDFMSRETADTDTADQVMASFKILAGDKNYITMDELRRELPPDQAEYCIARMAPYTGPDSVPGALDYMSFSTALYGESDL
# B6: sp¦O00273¦DFFA_HUMAN (protein, UniProt O00273 1-331, looked up)
# DNA fragmentation factor …: MEVTGDAGVPESGEIRTLKPCLLRRNYSREQHGVAASCLEDLRSKACDILAIDKSLTPVTLVLAEDGTIVDDDDYFLCLPSNTKFVALASNEKWAYNNSDGGTAWISQESFDVDETDSGAGLKWKNVARQLKEDLSSIILLSEEDLQMLVDAPCSDLAQELRQSCATVQRLQHTLQQVLDQREEVRQSKQLLQLYLQALEKEGSLLSKQEESKAAFGEEVDAVDTGISRETSSDVALASHILTALREKQAPELSLSSQDLELVTKEDPKALAVALNWDIKKTETVQEACERELALRLQQTQSLHSLRSISASKASPPGDLQNPKRARQDPT
# B7: sp¦Q8NC51¦PAIRB_HUMAN (protein, UniProt Q8NC51 2-408, looked up)
# SERPINE1 mRNA-binding protein …: PGHLQEGFGCVVTNRFDQLFDDESDPFEVLKAAENKKKEAGGGGVGGPGAKSAAQAAAQTNSNAAGKQLRKESQKDRKNPLPPSVGVVDKKEETQPPVALKKEGIRRVGRRPDQQLQGEGKIIDRRPERRPPRERRFEKPLEEKGEGGEFSVDRPIIDRPIRGRGGLGRGRGGRGRGMGRGDGFDSRGKREFDRHSGSDRSSFSHYSGLKHEDKRGGSGSHNWGTVKDELTESPKYIQKQISYNYSDLDQSNVTEETPEGEEHHPVADTENKENEVEEVKEEGPKEMTLDEWKAIQNKDRAKVEFNIRKPNEGADGQWKKGFVLHKSKSEEAHAEDSVMDHHFRKPANDITSQLEINFGDLGRPGRGGRGGRGGRGRGGRPNRGSRTDKSSASAPDVDDPEAFPALA
# B8: Serine protease 57 (protein, UniProt Q6UWY2 32-283, looked up)
# Serine protease 57: AQIIGGHEVTPHSRPYMASVRFGGQHHCGGFLLRARWVVSAAHCFSHRDLRTGLVVLGAHVLSTAEPTQQVFGIDALTTHPDYHPMTHANDICLLRLNGSAVLGPAVGLLRPPGRRARPPTAGTRCRVAGWGFVSDFEELPPGLMEAKVRVLDPDVCNSSWKGHLTLTMLCTRSGDSHRRGFCSADSGGPLVCRNRAHGLVSFSGLWCGDPKTPDVYTQVSAFVAWIWDVVRRSSPQPGPLPGTTRPPGEAA
# B9: sp¦P50502¦F10A1_HUMAN (protein, UniProt P50502 1-369, looked up)
# Hsc70-interacting protein: MDPRKVNELRAFVKMCKQDPSVLHTEEMRFLREWVESMGGKVPPATQKAKSEENTKEEKPDSKKVEEDLKADEPSSEESDLEIDKEGVIEPDTDAPQEMGDENAEITEEMMDQANDKKVAAIEALNDGELQKAIDLFTDAIKLNPRLAILYAKRASVFVKLQKPNAAIRDCDRAIEINPDSAQPYKWRGKAHRLLGHWEEAAHDLALACKLDYDEDASAMLKEVQPRAQKIAEHRRKYERKREEREIKERIERVKKAREEHERAQREEEARRQSGAQYGSFPGGFPGGMPGNFPGGMPGMGGGMPGMAGMPGLNEILSDPEVLAAMQDPEVMVAFQDVAQNPANMSKYQSNPKVMNLISKLSAKFGGQA
# Test system: human HL60 cells
# Test: SWATH-MS proteomics, differential protein representation, akirin2 KO vs WT HL60 cells
# Assay type: cell-based
# Settings: Over-represented in KO; KO vs WT HL60 cells
# Description: Total proteins were extracted from WT and akirin2 KO HL60 cells using the AllPrep DNA/RNA/Protein Mini Kit (Qiagen) and protein concentration was determined using the BCA Protein Assay with BSA (Sigma–Aldrich) as standard. Protein extracts (150 µg per sample, n=3 biological replicates) from each WT and KO cells were trypsin digested using the FASP Protein Digestion Kit (Expedeon Ltd., Abcam, Cambridge, U.K.) and sequencing grade trypsin (Promega, Madison, WI, U.S.A.) following manufacturer’s recommendations. The resulting peptides were finally desalted on to OMIX Pipette tips C18 (Agilent Technologies, Santa Clara, CA, U.S.A.), dried down and stored at −20 °C until mass spectrometry analysis. […] Three micrograms of each protein digest from the three biological replicates of WT and akirin2 KO HL60 cells were used for the generation of the reference spectral ion library as part of the SWATH-MS analysis.
# Peptides were eluted in a 120-min gradient from 5 to 30% solvent B in solvent A followed by 15-min gradient from 30 to 60% solvent B in solvent A (solvent A: 0.1% formic acid in water, solvent B: 0.1% formic acid in acetonitrile) and directly injected into the mass spectrometer for analysis. For IDA experiments, the mass spectrometer was set to scanning full spectra (350–1400 m/z) using 250 ms accumulation time per spectrum, followed by up to 50 MS/MS scans (100–1500 m/z). Candidate ions with a charge state between +2 and +5 counts per second above a minimum threshold of 100 were isolated for fragmentation. One MS/MS spectrum was collected for 100 ms, before adding those precursor ions to the exclusion list for 15 s (mass spectrometer operated by Analyst TF 1.6, AB Sciex). Dynamic background subtraction was turned off. MS/MS analyses were recorded in high-sensitivity mode with rolling collision energy on and a collision energy spread of 5. For SWATH quantitative analysis, six independent samples (three replicates from WT and akirin2 KO HL60 cells, 5 µg each) were subjected to the cyclic DIA of mass spectra using the SWATH variable windows calculator (V 1.0, AB Sciex) and the SWATH acquisition method editor (AB Sciex), similar to established methods. […] For these experiments, a 50-ms survey scan (350–1400 m/z) was acquired at the beginning of each cycle, and SWATH–MS/MS spectra were collected from 100–1500 m/z for 70 ms at high-sensitivity mode, resulting in a cycle time of 3.6 s. Collision energy for each window was determined according to the calculation for a charge +2 ion-centered upon the window with a collision energy spread of 15. To create a spectral library of all the detectable peptides in the samples, the IDA MS raw files were combined and subjected to database search in unison using ProteinPilot software v. 5.0.1 (AB Sciex) with the Paragon algorithm. […] The detected protein threshold was set at 0.05. An independent false discovery rate (FDR) analysis, using the target–decoy approach provided by Protein Pilot (AB Sciex; https://sciex.com/products/software/proteinpilot-software), was used to assess the quality of identifications. Positive identifications were considered when identified proteins reached 1% of global FDR. […] Global normalization was performed according to the Total Area Sums (TAS) of all detected proteins in the samples. […] Heatmaps were prepared using the Heatmapper (http://www.heatmapper.ca/expression/) with average linkage and Euclidean distance measurement method.
Molecule,Fold Change,Log (Fold Change)
B1,1.293,0.1116
B2,1.284,0.1086
B3,1.264,0.1017
B4,1.292,0.1114
B5,1.274,0.1053
B6,1.2886,0.1101
B7,1.286,0.1092

# Same assay, conditions: SWATH-MS, akirin2 KO vs WT HL60 cells; over-represented in KO
Molecule,Fold Change,Log (Fold Change)
B8,3.338,0.5235

# Same assay, conditions: akirin2 KO vs WT HL60 cells; sheet "Over-represented in KO"
Molecule,Fold Change,Log (Fold Change)
B9,1.2518,0.09753
